Patent US20060263849A1, “Glucagon-like peptide-1 analogs” (priority 2000, published 2006)
Several values for one entry are separate records, joined by “and”; a condition that tells them apart may be missing. Equal entries are not always repeated. Where no end group is shown, it is not given here.

Experiments:
[1] = GLP Aggregation Assay (time to onset of aggregation, turbidity at 350 nm); type: physicochemical; conditions: for Aggregation Time: 0.3 mg/mL in 10 mM citrate, 10 mM phosphate, 150 mM NaCl, pH 7.4 to 7.5, 37° C., stirred, turbidity at 350 nm; for Aggregation Time in Hours: *Aggregation time determined at 30° C.
Method: GLP peptides of this invention were analyzed with respect to their potential to aggregate in solution. In general, peptides in solution were stirred at elevated temperature in a suitable buffer while recording turbidity at 350 nm as a function of time. Time to the onset of aggregation was measured to quantify the potential of a given GLP molecule to aggregate under these stressed conditions.
A GLP-1 compound was first dissolved under alkaline conditions (pH 10.5) for 30 minutes to dissolve any pre-aggregated material. The solution was then adjusted to pH 7.4 and filtered. Specifically, 4 mg of a lyophilized GLP-1 compound was dissolved in 3 ml of 10 mM phosphate/10 mM citrate. The pH was adjusted to 10.0-10.5 and held for 30 minutes. The solution was adjusted with HCl to pH 7.4 and filtered through a suitable filter, for example a Millex GV syringe filter (Millipore Corporation, Bedford, Mass.). This solution was then diluted to a final sample containing 0.3 mg/mL protein in 10 mM citrate, 10 mM phosphate, 150 mM NaCl, and adjusted to pH 7.4 to 7.5. […] Every five minutes the turbidity of the solution was measured at 350 nm on an AVIV Model 14DS UV-VIS spectrophotometer (Lakewood, N.J.). For 30 seconds prior to and during the measurement the solution was stirred using a magnetic stir bar from Starna Cells, Inc. (Atascadero, Calif.). An increase in OD at 350 nm indicates aggregation of the GLP-peptide. The time to aggregation was approximated by the intersection of linear fits to the pre-growth and growth phase according to method of Drake (Arvinte T, Cudd A, and Drake A F. (1993) J. Bio. Chem. 268, 6415-6422).
The cuvette was cleaned between experiments with a caustic soap solution (e.g., Contrad-70).
The results for a number of GLP-1 compounds of the present invention are reported in Table 1 as the time in hours required for the compound to aggregate.

GLP-1 receptor = GLP-1 receptor activation, in vitro assays; type: cell-based; conditions: activity relative to the activity of GLP-1(7-37)OH
From the text: “Insulinotropic activity” refers to stimulating insulin secretion in response to elevated glucose levels, thereby causing glucose uptake by cells and decreased serum glucose levels. Insulinotropic activity can be assessed by methods known in the art, including using in vivo experiments and in vitro assays that measure GLP-1 receptor binding activity or receptor activation, e.g., assays employing pancreatic islet cells or insulinoma cells, as described in EP 619,322 to Gelfand, et al., and U.S. Pat. No. 5,120,712, respectively. The entire teachings of these references are incorporated herein by reference.
The ability of the GLP-1 compounds of the present invention to activate the GLP-1 receptor was assessed using in vitro assays such as those described in EP 619,322 to Gelfand, et al., and U.S. Pat. No. 5,120,712, respectively. The entire teachings of these references are incorporated herein by reference.

[2] = Zinc precipitation of GLP-1 compounds (A280 of supernatant); type: physicochemical; conditions: HEPES pH 7.4, 22° C., 18 hours
Method: Individual GLP-1 compounds were prepared as described in Examples 1 or 2. 3 mg of an individual lyophilized GLP molecule was dissolved in 3 ml 0.1 M HEPES buffer pH 10.5. The pH of the resulting solution was then adjusted to between 10.0 and 10.5 with 0.2 N NaOH. The solution was stirred at ambient temperature for 30 minutes and the solution was then adjusted to a pH of 7.4 with 0.2 N HCl. The solution was filtered through an appropriate syringe filter, for example a Millex GV syringe filter (Millipore Corporation, Bedford, Mass.), and the concentration of the GLP-1 compound was estimated by measuring the absorption at 280 nm in a spectrophotometer, for example a Beckman DU640. The protein concentration was then adjusted to 200 μM in HEPES pH 7.4.
The filtered GLP-1 solutions (100 μl) were diluted with 100 μl of 0.1 M HEPES pH 7.4 containing various levels of zinc chloride in an ELISA plate, (e.g. Falcon Microtest™ 96) resulting in 200 μl of solution containing various levels of zinc chloride and 100 μM GLP-1 compounds. These solutions were incubated at ambient temperature (22° C.) for 18 hours and then centrifuged, for example, in a Jouan CR412 centrifuge with microplate adapters. 150 μl of the supernatants after centrifugation were then transferred to a UV-readable ELISA microtiter plate (e.g. Costar UV plate) and the OD at 280 was determined in a microplate reader (e.g. Molecular Devices SPECTRAmax PLUS, SOFTmax PRO). A280 values are the result of two independent determinations.

[3] = Zn/GLP-1 molar ratio 0, 100 μM GLP-1 compound
[4] = Zn/GLP-1 molar ratio 0.3, 100 μM GLP-1 compound
[5] = Zn/GLP-1 molar ratio 0.5, 100 μM GLP-1 compound
[6] = Zn/GLP-1 molar ratio 0.7, 100 μM GLP-1 compound
[7] = Zn/GLP-1 molar ratio 1, 100 μM GLP-1 compound
[8] = Zn/GLP-1 molar ratio 2, 100 μM GLP-1 compound
[9] = Zn/GLP-1 molar ratio 3, 100 μM GLP-1 compound
[10] = Zn/GLP-1 molar ratio 5, 100 μM GLP-1 compound

Val^8-Glu^23-GLP-1(7-36)OH (HVEGTFTSDVSSYLEGEAAKEFIAWLVKGR)
Aggregation Time [1]: 65 h
GLP-1 Receptor Activation (GLP-1 receptor): 0.28

Val^8-Ala^11-GLP-1(7-37)OH (HVEGAFTSDVSSYLEGQAAKEFIAWLVKGRG)
Aggregation Time [1]: 10 h
GLP-1 Receptor Activation (GLP-1 receptor): 0.021

Val^8-Glu^34-GLP-1(7-37)OH (HVEGTFTSDVSSYLEGQAAKEFIAWLVEGRG)
Aggregation Time in Hours [1]: >40* Hours
GLP-1 Receptor Activation (GLP-1 receptor): 0.17

Ala^8-Glu^26-GLP-1(7-37)OH (HAEGTFTSDVSSYLEGQAAEEFIAWLVKGRG)
Aggregation Time [1]: >24 h
GLP-1 Receptor Activation (GLP-1 receptor): 0.7

Val^8-Tyr^16-GLP-1(7-37)OH (HVEGTFTSDYSSYLEGQAAKEFIAWLVKGRG)
Aggregation Time [1]: 5 h
GLP-1 Receptor Activation (GLP-1 receptor): 1.175

Gly^8-His^11-GLP-1(7-37)OH (HGEGHFTSDVSSYLEGQAAKEFIAWLVKGRG)
Aggregation Time in Hours [1]: 9* Hours
GLP-1 Receptor Activation (GLP-1 receptor): 0.282

Val^8-Lys^22-Glu^30-GLP-1(7-37)OH (HVEGTFTSDVSSYLEKQAAKEFIEWLVKGRG)
Aggregation Time [1]: 4 h
GLP-1 Receptor Activation (GLP-1 receptor): 0.37

Val^8-Lys^22-GLP-1(7-36)NH2 (HVEGTFTSDVSSYLEKQAAKEFIAWLVKGR-NH2)
Aggregation Time [1]: 24 h
GLP-1 Receptor Activation (GLP-1 receptor): 0.53

Val^8-Phe^22-GLP-1(7-37)OH
A280 [2, 3]: 0.31
A280 [2, 4]: 0.1485
A280 [2, 5]: 0.1165
A280 [2, 6]: 0.1015
A280 [2, 7]: 0.1265
A280 [2, 8]: 0.092
A280 [2, 9]: 0.061
A280 [2, 10]: 0.00795

Val^8-Glu^33-GLP-1(7-37)OH (HVEGTFTSDVSSYLEGQAAKEFIAWLEKGRG)
Aggregation Time [1]: >70 h
GLP-1 Receptor Activation (GLP-1 receptor): 0.039

Val^8-Gly^36-Pro^37-GLP-1(7-37)NH2 (HVEGTFTSDVSSYLEGQAAKEFIAWLVKGGP-NH2)
Aggregation Time [1]: 2 h
GLP-1 Receptor Activation (GLP-1 receptor): 0.53

Gly^8-Glu^22-GLP-1(7-37)OH
Aggregation Time [1]: 19 h

Val^8-Tyr^12-GLP-1(7-37)OH (HVEGTYTSDVSSYLEGQAAKEFIAWLVKGRG)
Aggregation Time [1]: 6 h
GLP-1 Receptor Activation (GLP-1 receptor): 0.81

Val^8-Gly^34-Lys^35-GLP-1(7-37)OH (HVEGTFTSDVSSYLEGQAAKEFIAWLVGKRG)
Aggregation Time [1]: 27 h
GLP-1 Receptor Activation (GLP-1 receptor): 0.34

Gly^8-GLP-1(7-37)OH (HGEGTFTSDVSSYLEGQAAKEFIAWLVKGRG-OH; UniProt P01275 98-128, looked up, variant A8G) [reference compound]
A280 [2, 3]: 0.32
A280 [2, 4]: 0.166
A280 [2, 5]: 0.151
A280 [2, 6]: 0.156
A280 [2, 7]: 0.119
A280 [2, 8]: 0.089
A280 [2, 9]: 0.085
A280 [2, 10]: 0.078

Val^8-Lys^33-Asn^34-GLP-1(7-37)OH
Aggregation Time [1]: >48 h
GLP-1 Receptor Activation (GLP-1 receptor): 0.09

Val^8-Glu^22-GLP-1(7-36)NH2 (HVEGTFTSDVSSYLEEQAAKEFIAWLVKGR-NH2)
Aggregation Time [1]: >65 h
GLP-1 Receptor Activation (GLP-1 receptor): 1.0

Val^8-Lys^20-GLP-1(7-37)OH (HVEGTFTSDVSSYKEGQAAKEFIAWLVKGRG)
Aggregation Time [1]: 5 h
GLP-1 Receptor Activation (GLP-1 receptor): 0.33

Val^8-GLP-1(7-37)OH [reference compound]
Aggregation Time [1]: 0.9 ± 0.2 h
A280 [2, 3]: 0.3
A280 [2, 4]: 0.27
A280 [2, 5]: 0.26
A280 [2, 6]: 0.124
A280 [2, 7]: 0.06
A280 [2, 8]: 0.025
A280 [2, 9]: 0.021
A280 [2, 10]: 0.019

Val^8-His^30-GLP-1(7-37)OH (HVEGTFTSDVSSYLEGQAAKEFIHWLVKGRG)
Aggregation Time [1]: 13 h
GLP-1 Receptor Activation (GLP-1 receptor): 0.19

Val^8-Glu^30-GLP-1(7-37)OH (HVEGTFTSDVSSYLEGQAAKEFIEWLVKGRG)
Aggregation Time [1]: 30 h
GLP-1 Receptor Activation (GLP-1 receptor): 0.29

Val^8-Ala^33-GLP-1(7-37)OH (HVEGTFTSDVSSYLEGQAAKEFIAWLAKGRG)
Aggregation Time [1]: 20 h
GLP-1 Receptor Activation (GLP-1 receptor): 0.1

Val^8-His^22-GLP-1(7-37)OH (HVEGTFTSDVSSYLEHQAAKEFIAWLVKGRG)
Aggregation Time [1]: >75 h
GLP-1 Receptor Activation (GLP-1 receptor): 0.14

Val^8-Glu^16-GLP-1(7-37)OH (HVEGTFTSDESSYLEGQAAKEFIAWLVKGRG)
Aggregation Time [1]: 12 h
GLP-1 Receptor Activation (GLP-1 receptor): 0.047

Val^8-Lys^33-Val^34-GLP-1(7-37)OH (HVEGTFTSDVSSYLEGQAAKEFIAWLKVGRG)
Aggregation Time [1]: 22 h
GLP-1 Receptor Activation (GLP-1 receptor): 0.08

Val^8-Lys^11-GLP-1(7-37)OH (HVEGKFTSDVSSYLEGQAAKEFIAWLVKGRG)
Aggregation Time [1]: 13 h
GLP-1 Receptor Activation (GLP-1 receptor): 0.001

Gly^8-Glu^30-GLP-1(7-37)OH (HGEGTFTSDVSSYLEGQAAKEFIEWLVKGRG)
Aggregation Time [1]: >40 h
GLP-1 Receptor Activation (GLP-1 receptor): 0.29

Val^8-His^36-GLP-1(7-37)OH (HVEGTFTSDVSSYLEGQAAKEFIAWLVKGHG)
Aggregation Time [1]: 8 h
GLP-1 Receptor Activation (GLP-1 receptor): 0.22

Val^8-His^35-GLP-1(7-37)OH (HVEGTFTSDVSSYLEGQAAKEFIAWLVKHRG)
Aggregation Time [1]: > 45 h and 30 h
GLP-1 Receptor Activation (GLP-1 receptor): 0.41

Val^8-Ala^27-GLP-1(7-37)OH (HVEGTFTSDVSSYLEGQAAKAFIAWLVKGRG)
Aggregation Time [1]: 2 h

Val^8-Pro^35-GLP-1(7-37)OH (HVEGTFTSDVSSYLEGQAAKEFIAWLVKPRG)
Aggregation Time [1]: 14 h
GLP-1 Receptor Activation (GLP-1 receptor): 0.094

Val^8-Glu^35-GLP-1(7-37)OH (HVEGTFTSDVSSYLEGQAAKEFIAWLVKERG)
Aggregation Time [1]: 63 h
GLP-1 Receptor Activation (GLP-1 receptor): 0.15

Val^8-Ser^30-GLP-1(7-37)OH (HVEGTFTSDVSSYLEGQAAKEFISWLVKGRG)
Aggregation Time [1]: 8 h
GLP-1 Receptor Activation (GLP-1 receptor): 0.19

GLP-1(7-37)OH [reference compound]
Aggregation Time [1]: 1 h
A280 [2, 3]: 0.337
A280 [2, 4]: 0.318
A280 [2, 5]: 0.329
A280 [2, 6]: 0.253
A280 [2, 7]: 0.148
A280 [2, 8]: 0.092
A280 [2, 9]: 0.081
A280 [2, 10]: 0.074

Val^8-Glu^22-Ala^27-GLP-1(7-37)OH (HVEGTFTSDVSSYLEEQAAKAFIAWLVKGRH)
Aggregation Time [1]: >45 h
